Laboratory results: the supplement of paper PMC9170038

Test system: MS2 coat protein
Assay: apparent KD of MS2 coat protein; designed switch direction (-1 OFF switch, 1 ON switch): -1; higher = weaker reporter binding
Outline: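 Stalled E. coli RNA polymerase transcribed designed RNA switches on Illumina chips, which were then titrated with SNAP-549-labelled MS2 coat protein, doubling from 0.7 or 1.5 nM to 3 µM. Steps lasted from 0.8–1.5 h at the lowest concentration to 10–20 min at the highest. The apparent KD is each design's median over clusters of curve-fitted normalised fluorescence.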

[1] = input ligand: microRNA oligo, concentration not stated
[2] = Eterna round: R95, input ligand: FMN 200 uM
[3] = Eterna round: R95, input ligand: microRNA oligo, concentration not stated
[4] = Eterna round: R95, input ligand: none

Sequence	apparent KD of MS2 coat protein (input ligand: FMN 200 uM)	apparent KD of MS2 coat protein [1]	apparent KD of MS2 coat protein (input ligand: none)	apparent KD of MS2 coat protein [2]	apparent KD of MS2 coat protein [3]	apparent KD of MS2 coat protein [4]
UAACGUGGCCUGAUCCUCCCUAACAUGAGGAUCACCCAUGUCUAGGAUAUCCGAACAAACAACGAGGAGAAGGAGACGAAACAU [Veleedan] (Eterna round: R96, puzzle: Exclusion NG 3)	37.5 nM	22.7 nM	28.3 nM	–	–	–
UAACUACAUGUAGGAUAUGCGUGGCGAAGCUAUGCAGAAGGACAUGAGGAUCACCCAUGUUUUAGCGUCUGCGUACAGAUGCGU [JL ENG1 1.50] (Eterna round: R96, puzzle: Exclusion NG 1)	34.8 nM	13.1 nM	19.1 nM	–	–	–
UAACUUCUAGUAAGGAUAUCGGUCCCAAGGGACAACGAGAAGGUACAUGAGGAUCACCCAUGUGAAAUAAGAAU [Mod of Zala 2 - Jieux - Brourd's Mod of Exclusion 4] (Eterna round: R97, puzzle: Brourd's mod of Exclusion 4)	72.9 nM	–	20.7 nM	–	–	–
UAAGCUCUGUCAGGAUAUCCCUGUAAACGCAACGGAGAAGGGACAUGAGGAUCACCCAUGUGCGGGCCCAACGCGCUCGGGUCC [Dilacesole] (Eterna round: R96, puzzle: Exclusion NG 1)	63.6 nM	23.6 nM	35.1 nM	–	–	–
UAAGUUUACCGAGGAUAUGGUCCAUAAUUUUUACCAGAAGGCGGACUCAACAUGAGGAUCACCCAUGUAUAAAGGGUAUUUGGU [JR_ExcNG1_Sub046] (Eterna round: R96, puzzle: Exclusion NG 1)	51.2 nM	27.4 nM	35.8 nM	–	–	–
UAAUAACAUGUAGGAUAUGCGUGGCGAAGCUAUGCAGAAGGACAUGAGGAUCACCCAUGUUAAAGCGUCUGCGUACAGAUGCGA [Mat - Exclusion NG 1 - Mod of JL - D97] (Eterna round: R96, puzzle: Exclusion NG 1)	188 nM	30.1 nM	31.1 nM	–	–	–
UAAUAUAGUGUGAGGAUAUGCUGGUCCUUGGAUCAGCAGAAGGCACAUGAGGAUCACCCAUGUAGUUUAUUUUA [Mat - Exclusion 4 - JL Mod - D2] (puzzle: Brourd's mod of Exclusion 4)	–	–	–	141 nM	28.2 nM	28.2 nM
UAAUAUAGUGUGAGGAUAUGCUGGUCGAUAGAUCAGCAGAAGGCACAUGAGGAUCACCCAUGUAAUAUAUUAAA [Mat - Exclusion 4 - JL Mod - D36] (puzzle: Brourd's mod of Exclusion 4)	–	–	–	64.6 nM	30.7 nM	42.9 nM
UACAUGAGGAUCACCCAUGUUUUGUCGUGUAUGGUAUUUAUCUAGGAUAUCAAGUUAUUAAUUUAUGAGAAGGAGAAUAUUAAU [JMF's solution 32] (Eterna round: R96, puzzle: Exclusion NG 3)	43.9 nM	27.4 nM	42.1 nM	–	–	–
UACAUGAGGAUCACCCAUGUUUUGUCGUGUAUGGUAUUUAUCUAGGAUAUCAAUAUAUUUAUUUAUGAGAAGGAGAAUAUUAAU [JMF's solution 11] (Eterna round: R96, puzzle: Exclusion NG 3)	–	28.5 nM	–	–	–	–
UACAUGAGGAUCACCCAUGUUUUGUCGUGUAUGGUAUUUAUCUAGGAUAUCAAUGUAUGUAUUUAUGAGAAGGAGAAUAUUAAU [JMF's solution 43] (Eterna round: R96, puzzle: Exclusion NG 3)	47.2 nM	27.4 nM	40.9 nM	–	–	–
UACAUGAGGAUCACCCAUGUUUUGUCGUGUAUGGUAUUUAUCUAGGAUAUCAAUUGAUUUAUUCAUGAGAAGGAGAAUAUUAAU [JMF's solution 64] (Eterna round: R96, puzzle: Exclusion NG 3)	34.1 nM	31.4 nM	39.8 nM	–	–	–
UACAUGAGGAUCACCCAUGUUUUGUCGUGUAUGGUAUUUAUCUAGGAUAUCAAUUGUUUUAUUUAUGAGAAGGAGAAUAUUAAU [JMF's solution 56] (Eterna round: R96, puzzle: Exclusion NG 3)	–	24.8 nM	–	–	–	–
UACAUGAGGAUCACCCAUGUUUUGUCGUGUAUGGUAUUUAUCUAGGAUAUCAAUUUAUUAAUUUAUGAGAAGGAGAAUAUUAAU [JMF's solution 20] (Eterna round: R96, puzzle: Exclusion NG 3)	34.4 nM	25.8 nM	43.3 nM	–	–	–
UACAUGAGGAUCACCCAUGUUUUGUCGUGUAUGGUAUUUAUCUAGGAUAUCAAUUUGUUUAUUUAUGAGAAGGAGAAUAUUAAU [JMF's solution 16] (Eterna round: R96, puzzle: Exclusion NG 3)	39.2 nM	29.8 nM	41 nM	–	–	–
UACAUGAGGAUCACCCAUGUUUUGUCGUGUAUGGUAUUUAUCUAGGAUAUCAUGUUAUUUAUUUAUGAGAAGGAGAAUAUUAAU [JMF's solution 24] (Eterna round: R96, puzzle: Exclusion NG 3)	32.6 nM	29.1 nM	32.5 nM	–	–	–

Sequence	apparent KD of MS2 coat protein (input ligand: FMN 200 uM)	apparent KD of MS2 coat protein [1]	apparent KD of MS2 coat protein (input ligand: none)	apparent KD of MS2 coat protein [2]	apparent KD of MS2 coat protein [3]	apparent KD of MS2 coat protein [4]
UACAUGAGGAUCACCCAUGUUUUGUCGUGUAUGGUAUUUAUCUAGGAUAUCAUUUUAUUUAGCUAUGAGAAGGAGAAUAUUAAU [JMF's solution 94] (Eterna round: R96, puzzle: Exclusion NG 3)	32.3 nM	20.5 nM	31.2 nM	–	–	–
UACCGGCGGACCGAGGCUUUUUGCUCGUCUUAUACUACAACAUGAGGAUCACCCAUGUGGUGGUGGUCCGUUGUAGU [JL ViennaUCT Bitein mod 5] (puzzle: Sensor v3, turn-off variant 2)	–	–	–	21.7 nM	6.09 nM	16.2 nM
UAGAAACAUGAGGAUCACCCAUGUGAGGAUAUGAAAAAGAAAAGAAAAGAAAGAAGAAUCAGAAGGCACAAAGA [salish99-ex1_r3_083] (puzzle: Exclusion 1)	–	–	–	33.6 nM	25.9 nM	23.6 nM
UAGAAAGGUAAGGAUAUCCAUGUGAAAUAAAGAGGAGAAGGUACCACAUGAGGAUCACCCAUGUGGCUCUCAAA [jl-ex6-4.54 Nando mod] (Eterna round: R97, puzzle: Exclusion 6)	13.8 nM	–	14.7 nM	–	–	–
UAGAUACAUGAGGAUCACCCAUGUGAGGAUAUGAGAAUGAAAUGAAAUGAAUGAAGAAUCAGAAGGCACAAAGG [JL-ex1-4.31 salish99 mod] (Eterna round: R97, puzzle: Exclusion 1)	238 nM	–	54 nM	–	–	–
UAGAUGGCUCAGGAUAUUUGCCAACUAACCCGCAAAGAAGGGAGCACAUGAGGAUCACCCAUGUGAUCGAACAA [Xeortibeza] (puzzle: Exclusion 6)	–	–	–	114 nM	22.6 nM	26.1 nM
UAGGUGUGAGGAUAUGGUAAAGAUAAGAUGAUAAAAGAACUCCAGAAGGCACAUGAGGAUCACCCAUGUAGAUG [Mat - Exclusion 4 - Mod of JL - D34] (puzzle: Exclusion 4)	–	–	–	62.9 nM	22.8 nM	25.8 nM
UAGUAGCAAGGAUAUACAGAGGAGAGGAAAGCAAGAGGAGGACAUGAGGAUCACCCAUGUAGAAGGUGCAGAGA [JR_Exclu2_Sub020] (puzzle: Exclusion 2)	–	–	–	74.6 nM	73.9 nM	66.6 nM
UAGUUAGCGUGUGGCACAUACAUGAGGAUCACCCAUGUUAGCUUAUAUAUUGCUCGUCUUAUAACAACACUUAACUU [Mod JX-Electric-eye6] (Eterna round: R97, puzzle: Sensor, turn-off variant 1)	18.7 nM	–	19 nM	–	–	–
UAGUUAUUCACAGGAUAUCGCCUCUUAUUACAUGAGGAUCACCCAUGUUUACUUAGUUACAUGUUCGAGAAGGGUGUAGCCGUU [JR_ExcNG2_Sub044] (Eterna round: R96, puzzle: Exclusion NG 2)	–	301 nM	–	–	–	–
UAUAACCAAGGAUAUACAUGAGGAUCACCCAUGUAAUAUAAUAUAAUAUAAAUAAAAUGUAGAAGGUGGGAUAU (Eterna round: R97, puzzle: Exclusion 3)	26.6 nM	–	31.4 nM	–	–	–
UAUAUACAUGAGGAUCACCCAUGUAAGGAUAUGCUUUAUUAUUAUUAUUAUUAUUAUUGCAGAAGGUACAUUAU [LRO-Excl01-05] (Eterna round: R97, puzzle: Exclusion 1)	38.4 nM	–	33.8 nM	–	–	–
UAUAUAUAGUAAGGAUAUGUAUAUGUUUUAUAAACAGAAGGUACUGACAUGAGGAUCACCCAUGUUUUAGUGUGGGCAUGUAGA [JMF's solution 54] (Eterna round: R96, puzzle: Exclusion NG 1)	–	44.5 nM	–	–	–	–
UAUAUAUAGUAAGGAUAUGUAUUAAUAUUAUAAACAGAAGGUACUGACAUGAGGAUCACCCAUGUUUUAGUGUGGGCAUGUAGA [JMF's solution 77] (Eterna round: R96, puzzle: Exclusion NG 1)	–	66.8 nM	–	–	–	–
UAUAUGUCAGGAUAUUAGUAGUAAAUGAAUAAAAUUAUUACUGAGAAGGGACAUGAGGAUCACCCAUGUGUCUC [Mat - Exclusion 4 - Eli Mod - D26] (Eterna round: R97, puzzle: Exclusion 4)	577 nM	–	175 nM	–	–	–
UAUCGGGACUGAGGAUAUUCGUUCGAACACGAAGAAGAAGGUAGUGUCAGGGACAUGAGGAUCACCCAUGUGAUUUCAGUCCCA [JL ViennaUCT Erinle mod 4] (Eterna round: R96, puzzle: Exclusion NG 1)	133 nM	96.8 nM	139 nM	–	–	–
